Measurements as given in patent EP1088233B9, “A BIOLUMINESCENCE RESONANCE ENERGY TRANSFER (BRET) SYSTEM AND ITS USE” (PerkinElmer BioSignal Inc., priority 1998, dated 1999).
Like-named read-outs stand apart in the source and are kept apart here. Values belong to the molecule of their own block, whether it stands above or below them.

Key:
[1] = Effect of DTT on BRET ratio in stable cell lines expressing Rluc or Rluc::EYFP (BRETCount); assay type: cell-based; conditions: DTT 10mM in PBS+Ca2+/Mg2++glucose
Procedure: PBS=PBS+Ca^2+/Mg^2++glucose. DTT 10mM. […] PBS=PBS+Ca^2+/Mg^2++glucose DTT 10mM.
In PBS (Ca ^2+/Mg^2++glucose) alone, BRET ratios are lower than in presence of DTT. When DTT is added, ratios increase by almost 0.1 BRET unit.

[2] = Cell viability by trypan blue dye in BRET assay media; assay type: cell-based; conditions: hamster, cho cells
Procedure: The effect of the type of media on the luminescence of the Rluc was assayed in absence or in the presence of various amount of DTT. Transfected CHO cells were collected and redistributed in 96 well plate using different media conditions (Figures 24-26). Luminescence timecourses at 470nm (TopCount) were performed at 25°C upon coelenterazine addition. The effects of three different media were assayed: PBS Ca^2+/Mg^2+ (Figure 24), PBS Ca^2+/Mg^2+ + glucose (Figure 25) and DMEM without phenol red (Figure 26).
Similar results were found in presence of 100mM DTT: PBS alone gave higher long term counts. As expected, increasing the concentration of DTT improved Rluc stability in all three media. Unfortunately, high amounts of DTT (50 and 100mM) which gave the best stability, damaged the cells: viability was assayed using trypan blue dye and decreased more than 20% over a period of 2 hours. […] This concentration was chosen for the BRET assays. […] However, DTT is not necessary for the BRET reaction to occur efficiently: as it acts as a boost for the Rluc long term emission.
In order to avoid cell damage during the assay procedure and timecourse experiments, an analysis was conducted to determine whether the use of aprotinin perturbs ratiometric measurements. Aprotinin is a protease inhibitor which is often used during cell culture to maintain cell integrity. […]

Rluc = target: T1, Rluc (Renilla reniformis, UniProt P27652); assay: Rluc luminescence with coelenterazine derivatives in cells transfected with pRluc-CMV (LumiCount); parameters: Normalized RLU: dose or concentration left out as unconfirmed; conditions: for half-life of the reaction (Rluc luminescence): coelenterazine f 1 mM; for Normalized RLU: derivatives, 4 minutes after addition
T1 sequence (P27652 1-311): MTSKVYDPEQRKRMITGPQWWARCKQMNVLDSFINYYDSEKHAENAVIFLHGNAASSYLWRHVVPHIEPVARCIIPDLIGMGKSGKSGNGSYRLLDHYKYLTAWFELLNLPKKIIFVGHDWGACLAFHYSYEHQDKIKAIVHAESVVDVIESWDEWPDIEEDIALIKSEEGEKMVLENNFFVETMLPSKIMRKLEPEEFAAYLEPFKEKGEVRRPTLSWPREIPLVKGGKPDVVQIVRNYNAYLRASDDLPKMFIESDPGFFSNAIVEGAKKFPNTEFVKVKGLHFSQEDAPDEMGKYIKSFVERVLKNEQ
Procedure: i) Coelenterazine derivatives. […] Cells (HeLa) were transiently transfected inT-75 flask with pRluc-CMV orcontrol vector using LipofectAMINE. At 48 hours post-transfection, cells were harvested and seeded in 96-well white ViewPlate (in duplicate). Coelenterazine derivatives (1 mM) were then added in each well. Luminescence from transfected cells was measured using the LumiCount 4 minutes after addition of coelenterazine derivatives. LumiCount was set at 1100V PMT and 1 sec read length.
Cells (HeLa and CHO) were transiently transfected inT-75 flasks with pRluc-CMV using LipofectAMINE. At 48 hours post-transfection, cells were harvested and seeded in 96-well white ViewPlate at a density of 50 000 cells per wells (in quadruplicate). Coelenterazine f (1 mM) was then added in each well. Luminescence from transfected cells was measured using the LumiCount at different times after addition of coelenterazine. LumiCount was set at 1100V PMT and 0.1 sec read length.

[3] = system: HeLa cells transfected with the apoptosis sensor; assay: Apoptosis sensor (Rluc-caspase-EYFP) BRET assay; assay type: cell-based; conditions: staurosporine 1mM, 5 hours of apoptosis induction, 10 minutes after coelenterazine h
Excerpt: A BRET apoptosis sensor was engineered by introducing a caspase-3 recognition site in the linker regionof the Rluc-EYFP fusionconstruct. Upon inductionof apoptosis, caspase-3 should recognize and cleave the linker region which should separate Rluc of EYFP and thereby decrease the BRET ratio over time.
pCEP4/Rluc-EYFP and pCEP4/Rluc-caspase-EYFP DNAs were transfected into HeLa cell using LipofectAMINE (BRL/Gibco-Life technologies) in 100mm dishes as described in the manufacturer's protocol. 24 hours post-transfection, transfected cells were harvested and distributed into 96-well microplates (white Optiplate from Packard) at a density of 30,000 cells per well. The following day, cells are induced to undergo apoptosis using staurosporine 1mM dissolved in ISCOVE media (BRL/Gibco-Life technologies) without serum and phenol red at 37°C (total volume here is […]) for 5 hours. […] of BRET buffer (PBS Ca^2+/Mg^2+ + glucose without aprotinin) and […] of coelenterazine h […] is added to start the bioluminescent reaction. Light emissions are detected using the BRETCount (read length sec for each filter, temperature 25°C). Data was collected 10 minutes after addition of coelenterazine h. The assay was done in quadruplicate.
Figure 31 gives representative BRET ratio changes in HeLa cells after 5 hours of apoptosis induction by staurosporine. […]

[4] = target: EGF receptors expressed endogenously by GH4-C1 cells; assay: cell-based or functional assay
[5] = target: EYFP•KaiB fusion protein (Aequorea victoria; Synechococcus (cyanobacterium)) (UniProt Q79PF5); assay: BRET imaging of E. coli cultures through 480 and 530 nm filters, cooled-CCD camera
[6] = target: EYFP•KaiA fusion protein (Aequorea victoria; Synechococcus (cyanobacterium)) (UniProt Q79PF6); assay: as above
[7] = target: EYFP•KaiB fusion protein (Aequorea victoria; Synechococcus (cyanobacterium)) (UniProt Q79PF5); assay: BRET luminescence spectra, co-expression in E. coli
[8] = target: enhanced yellow fluorescent protein (EYFP) (Aequorea victoria); assay: BRET in co-transfected cells, LumiCount, white microplate, 200 ul, 5 uM coelenterazine, 50,000 cells per well
[9] = target: enhanced yellow fluorescent protein (EYFP) (Aequorea victoria); assay: BRET in co-transfected cells, LumiCount, white microplate, 100 ul, 5 uM coelenterazine, 50,000 cells per well
[10] = target: enhanced yellow fluorescent protein (EYFP) (Aequorea victoria); assay: BRET in co-transfected cells, LumiCount, black microplate, 200 ul, 5 uM coelenterazine, 50,000 cells per well
calcitonin receptor [11] = target: T2, calcitonin receptor (Cricetulus griseus, UniProt G3GXI2); conditions: literature values; read-out: EC50 found in literature for a functional assay; cited from earlier work
T2 sequence (G3GXI2 40-539): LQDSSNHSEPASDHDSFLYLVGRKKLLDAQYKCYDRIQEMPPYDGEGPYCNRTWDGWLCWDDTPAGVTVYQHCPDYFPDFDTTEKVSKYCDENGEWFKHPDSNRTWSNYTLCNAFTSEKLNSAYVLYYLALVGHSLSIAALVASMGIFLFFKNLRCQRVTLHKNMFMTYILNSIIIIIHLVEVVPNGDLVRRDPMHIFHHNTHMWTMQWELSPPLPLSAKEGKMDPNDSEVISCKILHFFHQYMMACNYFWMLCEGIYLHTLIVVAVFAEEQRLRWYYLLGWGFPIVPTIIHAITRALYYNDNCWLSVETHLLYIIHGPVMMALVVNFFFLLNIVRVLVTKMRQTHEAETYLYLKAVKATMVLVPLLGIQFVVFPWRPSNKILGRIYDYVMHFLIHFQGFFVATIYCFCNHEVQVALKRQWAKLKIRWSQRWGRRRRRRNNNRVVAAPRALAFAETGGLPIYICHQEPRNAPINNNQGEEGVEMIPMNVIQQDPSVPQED

calcitonin receptor [12] = target: T2, calcitonin receptor; assay: cAMP sensor (CBP:CREB) BRET assay in CHO-K1 cells, endogenous calcitonin receptor; assay type: cell-based
Procedure: The pCDNA3./Rluc-CBP-NLS and pCDNA3.1 /EYFP-CREB-NLS DNA constructs were transiently transfected into CHO-K1, CHO-CCRS or CHW-β2 cell lines using LipofectAMINE™ (BRL/Gibco-Life technology, Gaethersburg, MD) using equal amount (4 µg) of DNA for each construct in 100mm dishes.
BRET assay using the transfected cells in suspension. At 48 hours post-transfection, the transfected cells were starved for 2 hours in a mixture of PBS + Ca2 + 1 mM/Mg2 + 0.5mM + glucose 1 g/l +aprotinin 2 µg/ml at 37°C before being harvested, washed with a mixture of PBS Ca2+/Mg2+ + glucose + aprotinin 2 µg/ml and counted. […]
BRET assay using transfected cells attached onto the bottom of the microplate. […] At 48 hours post-transfection, the transfected cells were starved as previously mentioned, washed and then analyzed without being harvested.
The assay conditions for both methods (cell in suspension or attached), cells were in PBS Ca2+ Mg2+ + glucose + aprotinin 2 µg/ml in volume of […]. […] Each well was read using both filters for 1 second each.
The CHO-K1 cells were transfected with both constructs. At 48 hours post-transfection, the cells were starved for 2 hours, washed, harvested and counted. […] The microplate was loaded into the BRETCount and light outputs at 470nm and 550nm were determined at several points to determine a timecourse (fig. 10). […]

[13] = target: calcitonin receptor expressed endogenously by CHO-K1 cells; assay: cell-based or functional assay
[14] = target: Rluc-caspase-EYFP (apoptosis sensor) (Renilla reniformis; Aequorea victoria) (UniProt P27652); assay: cell-based or functional assay

EYFP•KaiB fusion protein (Aequorea victoria; Synechococcus (cyanobacterium)), sequence (Q79PF5 whole entry, the tested form may be a part): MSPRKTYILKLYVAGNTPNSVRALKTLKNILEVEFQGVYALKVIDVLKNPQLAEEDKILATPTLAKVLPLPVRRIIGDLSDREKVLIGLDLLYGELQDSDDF
EYFP•KaiA fusion protein (Aequorea victoria; Synechococcus (cyanobacterium)), sequence (Q79PF6 whole entry, the tested form may be a part): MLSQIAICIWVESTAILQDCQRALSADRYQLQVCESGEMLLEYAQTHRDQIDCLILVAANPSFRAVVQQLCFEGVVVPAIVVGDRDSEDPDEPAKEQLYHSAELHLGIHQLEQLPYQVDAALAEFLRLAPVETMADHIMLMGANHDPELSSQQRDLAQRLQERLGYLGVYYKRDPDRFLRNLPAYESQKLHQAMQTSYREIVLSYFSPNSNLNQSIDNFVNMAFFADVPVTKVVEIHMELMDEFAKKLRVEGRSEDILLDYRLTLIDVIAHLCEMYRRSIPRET

Molecule: OC(CS)C(O)CS (stereo not shown) [DTT]
increase of BRET ratio [1]: ~0.1 BRET unit
cytotoxicity at 2 h, 10000 µM ([2]; DTT 10mM, over 2 hours, read-out: viability loss): < 15%
cytotoxicity at 2 h ([2]; DTT 50 and 100mM, over a period of 2 hours, read-out: viability decrease): > 20%

Molecule: Oc1ccc(-c2cn3c(O)c(Cc4ccc(F)cc4)nc3c(Cc3ccccc3)n2)cc1 [f, coelenterazine f]
half-life of the reaction (Rluc luminescence) (Rluc; CHO cells): 11 min
half-life of the reaction (Rluc luminescence) (Rluc; HeLa cells): 13 min
Normalized RLU (Rluc; HeLa cells): 180126 RLU

Molecule: Oc1ccc(-c2cn3c(O)c(Cc4ccccc4)nc3c(Cc3ccccc3)n2)cc1 [h, coelenterazine h]
Normalized RLU (Rluc; HeLa cells): 173547 RLU

Molecule: Oc1ccc(-c2cn3c(O)c(Cc4ccccc4)nc3c(CC3CCCC3)n2)cc1 [hcp]
Normalized RLU (Rluc; HeLa cells): 48144 RLU

Molecule: Oc1ccc(Cc2nc3c(Cc4ccccc4)nc(-c4ccc(O)cc4)cn3c2O)cc1 [native, coelenterazine]
Normalized RLU (Rluc; HeLa cells): 2030 RLU

Molecule: CN[C@@H]1C[C@H]2O[C@@](C)([C@@H]1OC)n1c3ccccc3c3c4c(c5c6ccccc6n2c5c31)C(=O)NC4 [staurosporine]
BRET ratio change (decrease) [3]: 0.1 unit

EC50 of the EGF dose response, BRET ratio of the TKR sensor (Rluc-PTB + EYFP-SH2) in GH4-C1 cells at 45 minutes post induction [4]: 0.92 nM
Molecule: EGF (ligand)

530/480nm ratio of luminescence [5]: 0.9
530/480nm ratio of luminescence [6]: 0.4
share of the RLUC luminescence for which energy transfer occurs [7]: 50%
Molecule: RLUC•KaiB fusion protein (from UniProt Q79PF5 1-102)

Ratio 530/480 [8]: 0.87
Ratio 530/480 [9]: 0.9
Ratio 530/480 [10]: 0.76
Molecule: Renilla luciferase (RLUC) (from UniProt P27652 1-311) (enzyme)

Molecule: calcitonin
EC50 (calcitonin receptor [11]): 0.03 to 0.06 nM
EC50 (calcitonin receptor [12]; CHO-K1 transfected with cAMP sensor, attached cells, data point at 45 minutes after addition of coelenterazine): 0.027 nM
BRET ratio over time (calcitonin receptor [12]; calcitonin 2 nM and 10nM, CHO-K1 cells in suspension, compared to buffer alone): Ratios increased over time

EC50 of the calcitonin dose response, BRET ratio of the cAMP sensor in attached CHO-K1 cells at 45 minutes [13]: 0.027 nM
Molecule: calcitonin (peptide)

BRET ratio change in HeLa cells after 5 hours of apoptosis induction by staurosporine [14]: 0.1 unit
Molecule: caspase-3 (endogenous in HeLa cells) (from UniProt P42574 29-277) (enzyme)
